According to US20220380441A1 (VIR BIOTECHNOLOGY, published 2022):

T1: Recombinant human FcγRIIa (H131), His-tagged (human, UniProt P12318 34-218)
T1 construct: also called FcγRIIa allele H131; not shown: C-terminal 6-His tag
T1 sequence (looked up): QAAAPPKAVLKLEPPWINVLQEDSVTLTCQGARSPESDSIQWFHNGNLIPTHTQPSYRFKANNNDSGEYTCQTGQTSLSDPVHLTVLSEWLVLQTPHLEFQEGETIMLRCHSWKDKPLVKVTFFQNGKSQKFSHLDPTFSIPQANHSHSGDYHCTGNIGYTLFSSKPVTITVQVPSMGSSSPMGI

T2: Recombinant human FcγRIIa (R131), His-tagged (human, UniProt P12318 34-218)
T2 construct: also called FcγRIIa allele R131
T2 sequence (looked up): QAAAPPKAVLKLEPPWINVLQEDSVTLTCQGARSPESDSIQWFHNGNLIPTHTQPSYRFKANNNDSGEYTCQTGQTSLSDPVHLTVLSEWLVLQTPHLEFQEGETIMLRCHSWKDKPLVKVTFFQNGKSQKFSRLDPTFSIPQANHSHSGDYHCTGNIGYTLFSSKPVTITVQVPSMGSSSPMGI

T3: Recombinant human FcγRIIb, His-tagged (human, UniProt P31994 43-217)
T3 construct: not shown: C-terminal 6-His tag
T3 sequence (looked up): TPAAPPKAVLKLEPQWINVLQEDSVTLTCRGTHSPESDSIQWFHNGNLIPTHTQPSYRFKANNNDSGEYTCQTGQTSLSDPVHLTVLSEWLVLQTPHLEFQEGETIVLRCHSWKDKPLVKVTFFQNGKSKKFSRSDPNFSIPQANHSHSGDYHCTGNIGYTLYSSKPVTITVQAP


Columns and labels:
[1] = molecular target: T1, Recombinant human FcγRIIa (H131), …; assay: BLI (Octet RED96), His-tagged FcγR on anti-penta-His sensors, mAb at 2 µg/ml cross-linked with anti-human F(ab')2
Method: (§1) His-tagged human FcγRs ((A) FcγRIIa allele H131; (B) FcγRIIa allele R131; (C) FcγRIIIa allele F158; (D) FcγRIIIa allele V158; (E) FcγRIIb) at 2 μg/ml were captured onto anti-penta-His sensors for 6 minutes. FcγRs-loaded sensors were then exposed for 5 minutes to a solution of kinetics buffer (pH 7.1) containing 2 μg/ml of each mAb (left part of the plot) in the presence 1 μg/ml of affiniPure F(ab′)₂ Fragment Goat Anti-Human IgG, F(ab′)₂ fragment specific (to cross-link human mAbs through the Fab fragment), followed by a dissociation step in the same buffer for additional 4 minutes (right part of the plot). Association and dissociation profiles were measured in real time as change in the interference pattern using an Octet RED96 (FortéBio).
(§2) Briefly, His-tagged human FcγRs (FcγRIIa allele H131, FcγRIIa allele R131, FcγRIIAa allele F158, FcγRIIIa allele V158 and FcγRIIb) at 2 μg/ml were captured onto anti-penta-His sensors for 6 minutes. FcγR-loaded sensors were then exposed for 4 minutes to a solution of kinetics buffer (pH 7.1) containing 2 μg/ml of each mAb in the presence 1 μg/ml of affiniPure F(ab′)2 Fragment Goat Anti-Human IgG, F(ab′)2 fragment-specific (to cross-link human mAbs through the Fab fragment), followed by a dissociation step in the same buffer for 4 additional minutes (right part of the plot). Association and dissociation profiles were measured in real time as change in the interference pattern using an Octet RED96 (FortéBio).

[2] = molecular target: T2, Recombinant human FcγRIIa (R131), …; assay: as above
Method: as §1, §2

[3] = molecular target: T3, Recombinant human FcγRIIb, His-tagged; assay: as above
Method: as §1, §2

[4] = molecular target: T4, Recombinant human FcγRIIIa (V158), His-tagged (human, UniProt P08637 17-208); assay: as above
T4 construct: also called FcγRIIIa allele V158; not shown: C-terminal 6-His tag

[5] = molecular target: T5, Recombinant human FcγRIIIa (F158), His-tagged (human, UniProt P08637 17-208); assay: as above
T5 construct: also called FcγRIIIa allele F158; not shown: C-terminal 6-His tag

[6] = molecular target: T6, Human complement component C1q (human, UniProt P02745 23-245; P02746 28-253; P02747 29-245); assay: BLI (Octet RED96), IgG captured on anti-human Fab (CH1) sensors, C1q at 3 µg/ml
T6 construct: also called human C1q; human complement protein C1q
Method: (§3) IgG-loaded sensors were then exposed for 4 minutes to a solution of kinetics buffer (pH 7.1) containing 3 μg/ml of purified human C1q (left part of the plot), followed by a dissociation step in the same buffer for additional 4 minutes (right part of the plot). Association and dissociation profiles were measured in real time as change in the interference pattern using an Octet RED96 (FortéBio).
(§4) IgG-loaded sensors were then exposed for 4 minutes to a solution of kinetics buffer (pH 7.1) containing 3 μg/ml of purified human C1q (left part of the plot), followed by a dissociation step in the same buffer for 4 additional minutes (right part of the plot). Association and dissociation profiles were measured in real time as change in the interference pattern using an Octet RED96 (FortéBio).

[7] = molecular target: T6, Human complement component C1q; assay: BLI (Octet RED96), IgG captured on anti-human Fab (CH1) sensors
Method: as §3, §4

T4 sequence (P08637 17-208 F176V limits assumed): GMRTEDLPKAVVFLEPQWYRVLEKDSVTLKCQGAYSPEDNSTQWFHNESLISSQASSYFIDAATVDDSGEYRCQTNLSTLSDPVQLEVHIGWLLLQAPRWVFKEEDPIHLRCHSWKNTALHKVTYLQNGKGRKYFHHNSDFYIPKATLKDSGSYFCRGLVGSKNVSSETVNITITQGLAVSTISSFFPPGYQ
T5 sequence (P08637 17-208 limits assumed): as the sequence (P08637 17-208 F176V limits assumed) above, with V160F counted along it
T6 sequence (P02745 23-245 limits assumed, chain 1 of 3): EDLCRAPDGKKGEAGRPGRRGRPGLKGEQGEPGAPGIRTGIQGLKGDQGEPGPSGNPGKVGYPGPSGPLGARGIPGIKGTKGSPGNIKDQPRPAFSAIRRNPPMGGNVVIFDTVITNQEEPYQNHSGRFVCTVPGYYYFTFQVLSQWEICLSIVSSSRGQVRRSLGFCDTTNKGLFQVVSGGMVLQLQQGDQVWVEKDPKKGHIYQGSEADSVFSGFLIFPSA
T6 sequence (P02746 28-253 limits assumed, chain 2 of 3): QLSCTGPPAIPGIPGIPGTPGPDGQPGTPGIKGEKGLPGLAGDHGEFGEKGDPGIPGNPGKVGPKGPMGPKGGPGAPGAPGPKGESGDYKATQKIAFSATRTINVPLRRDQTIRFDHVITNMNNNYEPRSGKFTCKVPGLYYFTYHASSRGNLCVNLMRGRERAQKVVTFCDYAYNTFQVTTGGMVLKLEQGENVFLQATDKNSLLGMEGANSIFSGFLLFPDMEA
T6 sequence (P02747 29-245 limits assumed, chain 3 of 3): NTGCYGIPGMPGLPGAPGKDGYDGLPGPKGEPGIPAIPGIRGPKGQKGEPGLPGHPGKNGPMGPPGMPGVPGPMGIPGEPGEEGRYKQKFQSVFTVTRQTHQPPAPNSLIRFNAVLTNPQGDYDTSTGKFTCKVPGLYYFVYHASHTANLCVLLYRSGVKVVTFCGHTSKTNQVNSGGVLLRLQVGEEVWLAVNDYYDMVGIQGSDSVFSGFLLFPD

Binder | binding result [1] | binding result [2] | binding result [3] | binding result [4] | binding result [5] | binding result [6] | binding result [7]
HBC34-V35-MLNS (antibody, human IgG1, lambda) heavy: not shown light: SYELTQPPSVSVSPGQTVSIPCSGDKLGNKNVAWFQHKPGQSPVLVIYEVKYRPSGIPERFSGSNSGNTATLTISGTQAMDEAAYFCQTFDSTTVVFGGGTRLTVLGQPKAAPSVTLFPPSSEELQANKATLVCLISDFYPGAVTVAWKADSSPVKAGVETTTPSKQSNNKYAASSYLSLTPEQWKSHRSYSCQVTHEGSTVEKTVAPTECS | binds | binds | binds | binds | binds | binds | 
HBC34-V35-MLNS-GAALIE (antibody, human IgG1, lambda) heavy: ELQLVESGGGWVQPGGSQRLSCAASGRIFRSFYMSWVRQAPGKGLEWVATINQDGSEKLYVDSVKGRFTISRDNAKNSLFLQMNNLRVEDTAVYYCAAWSGNSGGMDVWGQGTTVSVSSASTKGPSVFPLAPSSKSTSGGTAALGCLVKDYFPEPVTVSWNSGALTSGVHTFPAVLQSSGLYSLSSVVTVPSSSLGTQTYICNVNHKPSNTKVDKKVEPKSCDKTHTCPPCPAPELLAGPSVFLFPPKPKDTLMISRTPEVTCVVVDVSHEDPEVKFNWYVDGVEVHNAKTKPREEQYNSTYRVVSVLTVLHQDWLNGKEYKCKVSNKALPLPEEKTISKAKGQPREPQVYTLPPSRDELTKNQVSLTCLVKGFYPSDIAVEWESNGQPENNYKTTPPVLDSDGSFFLYSKLTVDKSRWQQGNVFSCSVLHEALHSHYTQKSLSLSPGK light: SYELTQPPSVSVSPGQTVSIPCSGDKLGNKNVAWFQHKPGQSPVLVIYEVKYRPSGIPERFSGSNSGNTATLTISGTQAMDEAAYFCQTFDSTTVVFGGGTRLTVLGQPKAAPSVTLFPPSSEELQANKATLVCLISDFYPGAVTVAWKADSSPVKAGVETTTPSKQSNNKYAASSYLSLTPEQWKSHRSYSCQVTHEGSTVEKTVAPTECS | binds | binds |  | binds | binds |  | no binding (tested: 3 µg/ml of purified human C1q)
